4 molecules from patent publication US20140356383A1 (published 2014) can be followed below.

Assay [1] concerns the target T1, human guanylyl cyclase C (GCC) (human, UniProt P25092 24-1073).
T1 construct: also called hGCC; STAR
The experiment in a line: flow cytometry, 293 GCC #2 cells, 0.001 µg/ml. In general terms: In flow cytometry, cells or beads pass a laser one at a time.

Assay [2] deals with T1, human guanylyl cyclase C (GCC). The experiment in a line: flow cytometry, 293 GCC #2 cells, 0.063 µg/ml.
The target is the same in assay [3]. The experiment in a line: flow cytometry, 293 GCC #2 cells, 1 µg/ml.
Assay [4] shares this target. The experiment in a line: flow cytometry, 293 GCC #2 cells, 0.016 µg/ml.
The target is the same in assay [5]. The experiment in a line: flow cytometry, 293 GCC #2 cells, 0.25 µg/ml.
Assay [6] shares this target. The experiment in a line: flow cytometry, 293 GCC #2 cells, 0.004 µg/ml.
For assay [7] the target is unchanged. Briefly: cell-based or functional assay.
The target of assay [8] is T2, TOK107-hIg (hGCC-ECD/hIgG1 Fc) (human).
T2 construct: Expressed in HEK293 cells; also called TOK107-hIgG; TOK107-Ig
T2 sequence (chain, as listed by the source limits assumed): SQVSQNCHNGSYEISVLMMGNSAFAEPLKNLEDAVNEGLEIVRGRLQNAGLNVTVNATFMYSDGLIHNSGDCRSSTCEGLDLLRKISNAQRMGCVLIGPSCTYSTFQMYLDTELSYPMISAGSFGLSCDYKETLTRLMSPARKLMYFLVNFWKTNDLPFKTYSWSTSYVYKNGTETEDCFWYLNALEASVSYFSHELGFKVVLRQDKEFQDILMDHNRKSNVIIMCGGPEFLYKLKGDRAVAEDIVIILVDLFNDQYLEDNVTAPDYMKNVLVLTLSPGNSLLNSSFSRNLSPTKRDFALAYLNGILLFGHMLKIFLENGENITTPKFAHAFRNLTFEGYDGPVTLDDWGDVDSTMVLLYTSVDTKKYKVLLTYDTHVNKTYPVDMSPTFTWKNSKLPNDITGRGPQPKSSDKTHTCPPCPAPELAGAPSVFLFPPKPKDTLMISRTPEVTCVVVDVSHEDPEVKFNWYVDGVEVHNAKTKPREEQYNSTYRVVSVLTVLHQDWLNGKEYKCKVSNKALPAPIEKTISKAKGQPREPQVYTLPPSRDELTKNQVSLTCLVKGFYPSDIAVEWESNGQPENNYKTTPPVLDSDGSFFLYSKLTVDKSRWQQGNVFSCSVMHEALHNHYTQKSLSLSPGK
Briefly: SPR, BIACORE T100, 22 C; Prep B (reference) 5F9 immobilized on CM4 chip, GCC-ECD-Fc injected; 1:1 model; replicate F.

Assay [9] deals with T2, TOK107-hIg (hGCC-ECD/hIgG1 Fc). The experiment in a line: SPR, BIACORE T100, 22 C; Prep A 5F9 immobilized on CM4 chip, GCC-ECD-Fc injected; 1:1 model; replicate C. (SPR reads the build-up and loss of mass on a sensor chip optically.)
For assay [10] the target is unchanged. Briefly: SPR, BIACORE T100, 22 C; Prep A 5F9 immobilized, GCC-ECD-Fc injected; average of replicates A-E (95% confidence interval in brackets).
Assay [11] has the same target. Briefly: SPR, BIACORE T100, 22 C; Prep B (reference) 5F9 immobilized on CM4 chip, GCC-ECD-Fc injected; 1:1 model; replicate I.
For assay [12] the target is unchanged. The experiment in a line: SPR, BIACORE T100, 22 C; Prep B (reference) 5F9 immobilized on CM4 chip, GCC-ECD-Fc injected; 1:1 model; replicate G.
The target is the same in assay [13]. Briefly: SPR, BIACORE T100, 22 C; Prep A 5F9 immobilized on CM4 chip, GCC-ECD-Fc injected; 1:1 model; replicate A.
Assay [14] has the same target. The experiment in a line: SPR, BIACORE T100, 22 C; Prep A 5F9 immobilized on CM4 chip, GCC-ECD-Fc injected; 1:1 model; replicate D.
For assay [15] the target is unchanged. The experiment in a line: SPR, BIACORE T100, 22 C; Prep A 5F9 immobilized on CM4 chip, GCC-ECD-Fc injected; 1:1 model; replicate B.
Assay [16] has as its target T1, human guanylyl cyclase C (GCC). Briefly: FACS with GCC-expressing cells (cell line not given); antibody concentration for half maximal binding.
Assay [17] deals with T2, TOK107-hIg (hGCC-ECD/hIgG1 Fc). Briefly: SPR, BIACORE T100, 22 C; Prep A 5F9 immobilized on CM4 chip, GCC-ECD-Fc injected; 1:1 model; replicate E.
Assay [18] has the same target. Briefly: SPR, BIACORE T100, 22 C; Prep B (reference) 5F9 immobilized on CM4 chip, GCC-ECD-Fc injected; 1:1 model; replicate H.
For assay [19] the target is unchanged. Briefly: SPR, BIACORE T100, 22 C; Prep B (reference) 5F9 immobilized, GCC-ECD-Fc injected; average of replicates F-I (95% confidence interval in brackets).
Assay [20] has the same target. Briefly: ELISA against TOK107-hIg; antibody concentration for half maximal binding.

T1 sequence (P25092 24-1073 limits assumed): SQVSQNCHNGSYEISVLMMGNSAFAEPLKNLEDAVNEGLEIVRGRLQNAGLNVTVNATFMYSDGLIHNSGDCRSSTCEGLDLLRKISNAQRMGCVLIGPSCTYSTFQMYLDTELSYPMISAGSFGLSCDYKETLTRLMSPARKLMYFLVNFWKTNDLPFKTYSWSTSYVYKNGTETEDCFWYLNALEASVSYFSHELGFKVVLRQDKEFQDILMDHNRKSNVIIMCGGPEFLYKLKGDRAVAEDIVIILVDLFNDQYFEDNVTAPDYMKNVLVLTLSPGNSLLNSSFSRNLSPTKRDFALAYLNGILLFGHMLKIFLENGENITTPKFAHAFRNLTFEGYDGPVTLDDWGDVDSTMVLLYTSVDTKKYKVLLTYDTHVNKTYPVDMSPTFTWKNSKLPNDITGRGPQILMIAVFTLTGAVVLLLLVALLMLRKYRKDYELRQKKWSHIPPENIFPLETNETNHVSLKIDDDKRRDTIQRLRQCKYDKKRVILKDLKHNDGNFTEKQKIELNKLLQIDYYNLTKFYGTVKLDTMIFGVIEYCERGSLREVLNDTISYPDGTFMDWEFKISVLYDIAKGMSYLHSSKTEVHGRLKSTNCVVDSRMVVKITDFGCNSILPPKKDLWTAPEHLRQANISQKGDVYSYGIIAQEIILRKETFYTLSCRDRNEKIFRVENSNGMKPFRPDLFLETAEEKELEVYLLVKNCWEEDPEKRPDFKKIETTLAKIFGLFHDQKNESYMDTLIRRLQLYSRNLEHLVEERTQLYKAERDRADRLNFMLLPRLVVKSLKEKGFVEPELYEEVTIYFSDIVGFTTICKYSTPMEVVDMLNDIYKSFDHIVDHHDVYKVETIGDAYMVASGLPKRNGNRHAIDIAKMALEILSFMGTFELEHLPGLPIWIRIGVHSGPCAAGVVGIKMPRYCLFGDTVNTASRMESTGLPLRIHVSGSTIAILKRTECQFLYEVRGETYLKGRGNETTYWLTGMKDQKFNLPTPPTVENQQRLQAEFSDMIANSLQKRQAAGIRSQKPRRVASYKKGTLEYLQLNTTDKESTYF

B1: 5F9 vcMMAE immunoconjugate (antibody, V domains shown)
VH: QVQLQQWGAGLLKPSETLSLTCAVFGGSFSGYYWSWIRQPPGKGLEWIGEINHRGNTNDNPSLKSRVTISVDTSKNQFALKLSSVTAADTAVYYCARERGYTYGNFDHWGQGTLVTVSS
VL: EIVMTQSPATLSVSPGERATLSCRASQSVSRNLAWYQQKPGQAPRLLIYGASTRATGIPARFSGSGSGTEFTLTIGSLQSEDFAVYYCQQYKTWPRTFGQGTNVEIK
modifications: mc-vc-MMAE linked to cysteines freed by partial reduction of interchain disulfides (outside this variable domain); average drug loading about 4 (3.6 in the described preparation)
notes: also called MLN0264; ML0264
With B1, the MFI in assay [1] is 445; in assay [2], 4850; in assay [3] it was 7420; in [4] it was 1790; in [5] it was 7300; in [6], 696. For the same molecule, the “LD 50 (nM), direct cytotoxicity, CT 26 GCC #2.5 cells” value (“LD 50 (nM) … CT 26 GCC #2.5 cells” for short) in assay [7] is greater than 500 nM. In addition, the “LD 50 (nM), direct cytotoxicity, CT 26 GCC #32 cells” value (from here on “LD 50 (nM) … CT 26 GCC #32 cells”) in assay [7] is 267 nM. Also, the “LD 50 (nM), direct cytotoxicity, HT 29 GCC #2 cells” value (“LD 50 (nM) … HT 29 GCC #2 cells” for short) in assay [7] was 24.1 nM. Besides, the “LD 50 (nM), direct cytotoxicity, HT 29 GCC #5 cells” value (“LD 50 (nM) … HT 29 GCC #5 cells” below) in assay [7] is 654 nM. Moreover, the “LD 50 (nM), direct cytotoxicity, HT 29 GCC #18 cells” value (shortened to “LD 50 (nM) … HT 29 GCC #18 cells”) in [7] is 555 nM. The “LD 50 (nM), direct cytotoxicity, HT29 GCC#5 cells” value in assay [7] was found to be 0.59 nM.

B2: 5F9-vc-MMAF (antibody, V domains shown)
VH: QVQLQQWGAGLLKPSETLSLTCAVFGGSFSGYYWSWIRQPPGKGLEWIGEINHRGNTNDNPSLKSRVTISVDTSKNQFALKLSSVTAADTAVYYCARERGYTYGNFDHWGQGTLVTVSS
VL: EIVMTQSPATLSVSPGERATLSCRASQSVSRNLAWYQQKPGQAPRLLIYGASTRATGIPARFSGSGSGTEFTLTIGSLQSEDFAVYYCQQYKTWPRTFGQGTNVEIK
modifications: mc-vc-MMAF linked to cysteines freed by partial reduction of interchain disulfides (outside this variable domain); average drug loading about four
Take B2: the MFI in assay [1] was 440; in [2] it was 4830; in [3], 7780; in assay [4], 1500; in assay [5], 7560; in assay [6], 707. The “LD 50 (nM) … CT 26 GCC #2.5 cells” value in [7] is greater than 10 nM. The “LD 50 (nM) … CT 26 GCC #32 cells” value in assay [7] was found to be 0.004 nM. Moreover, the “LD 50 (nM) … HT 29 GCC #2 cells” value in [7] came out at 0.127 nM. Also, the “LD 50 (nM) … HT 29 GCC #5 cells” value in assay [7] was determined as 563 nM. Also, in [7], the “LD 50 (nM) … HT 29 GCC #18 cells” value was greater than 10000 nM.

B3: anti-GCC human monoclonal antibody 5F9 (antibody, V domains shown)
VH: QVQLQQWGAGLLKPSETLSLTCAVFGGSFSGYYWSWIRQPPGKGLEWIGEINHRGNTNDNPSLKSRVTISVDTSKNQFALKLSSVTAADTAVYYCARERGYTYGNFDHWGQGTLVTVSS
VL: EIVMTQSPATLSVSPGERATLSCRASQSVSRNLAWYQQKPGQAPRLLIYGASTRATGIPARFSGSGSGTEFTLTIGSLQSEDFAVYYCQQYKTWPRTFGQGTNVEIK
notes: also called mAb 5F9; MAb 5F9 (Prep A)
Usually Kd stands for the concentration at which binding is half-saturated. The low end stands for higher affinity, the high end for lower affinity. What is called koff is a measure of how fast the partners let go of each other. High values mean fast dissociation, low ones slow dissociation. A word on the kon: it is a measure of how fast the partners come together. In general, EC50 refers to the concentration needed to bring the measured effect to its halfway point. Read a low EC50 as higher potency in that assay. Take B3: the Kd in assay [8] amounted to 0.0789 nM; in assay [9], 0.201 nM; in assay [10], 0.136 nM; in assay [11] it was 0.127 nM; in assay [12] it was 0.103 nM; in assay [13], 0.112 nM. The Kd in assay [14] was 0.091 nM; in [15], 0.0917 nM; in assay [17], 0.184 nM; in assay [18], 0.105 nM; in assay [19] it was 0.103 nM. For the same molecule, the koff amounted to 7.64e-06 s⁻¹ in assay [8]; 2.15e-05 s⁻¹ in [9]; 1.46e-05 s⁻¹ in [10]; 1.54e-05 s⁻¹ in assay [11]; 1.24e-05 s⁻¹ in assay [12]; 1.19e-05 s⁻¹ in [13]. The koff in assay [14] is 1.11e-05 s⁻¹; in [15], 1.1e-05 s⁻¹; in assay [17], 1.77e-05 s⁻¹; in assay [18] it was 9.57e-06 s⁻¹; in assay [19] it was 1.13e-05 s⁻¹. The kon in assay [8] stood at 96800 M⁻¹ s⁻¹; in assay [9], 107000 M⁻¹ s⁻¹; in assay [10] it was 110000 M⁻¹ s⁻¹; in [11], 121000 M⁻¹ s⁻¹; in assay [12] it was 120000 M⁻¹ s⁻¹; in assay [13] it was 106000 M⁻¹ s⁻¹. Also, the kon in assay [14] is 122000 M⁻¹ s⁻¹; in assay [15] it was 120000 M⁻¹ s⁻¹; in [17], 96400 M⁻¹ s⁻¹; in [18], 90900 M⁻¹ s⁻¹; in assay [19] it was 107000 M⁻¹ s⁻¹. Besides, the MFI is 500 in [1]; 6620 in assay [2]; 8030 in assay [3]; 2460 in assay [4]; 7820 in assay [5]; 937 in assay [6]. The figures for the EC50 in assay [16] and in [20] were 1.24 nM and 36.5 nM, respectively.

B4: 5F9-mc-MMAF (antibody, V domains shown)
VH: QVQLQQWGAGLLKPSETLSLTCAVFGGSFSGYYWSWIRQPPGKGLEWIGEINHRGNTNDNPSLKSRVTISVDTSKNQFALKLSSVTAADTAVYYCARERGYTYGNFDHWGQGTLVTVSS
VL: EIVMTQSPATLSVSPGERATLSCRASQSVSRNLAWYQQKPGQAPRLLIYGASTRATGIPARFSGSGSGTEFTLTIGSLQSEDFAVYYCQQYKTWPRTFGQGTNVEIK
modifications: mc-MMAF (non-cleavable linker) linked to cysteines freed by partial reduction of interchain disulfides (outside this variable domain); average drug loading about four
Consider B4, for which the MFI in assay [1] worked out at 483; in assay [2], 5350; in assay [3], 7580; in assay [4], 2110; in [5], 7400; in assay [6], 776. Besides, the “LD 50 (nM) … CT 26 GCC #2.5 cells” value in [7] is greater than 10 nM. Also, in assay [7], the “LD 50 (nM) … CT 26 GCC #32 cells” value came out at 0.064 nM. In addition, the “LD 50 (nM) … HT 29 GCC #2 cells” value in [7] stood at 3.1 nM. Also, the “LD 50 (nM) … HT 29 GCC #5 cells” value in [7] was greater than 10000 nM. The “LD 50 (nM) … HT 29 GCC #18 cells” value in [7] was greater than 10000 nM. The “LD 50 (nM), direct cytotoxicity, HT29 GCC#5 cells” value in [7] was greater than 10 nM.
